Laboratory results from patent EP4692367A1.

Assays:
[1] = biological target: LgBiT-p62 (Homo sapiens (Human)) (UniProt Q13501); assay: NanoBiT split-luciferase complementation in HeLa cells co-transfected with pLgBiT-p62 and pSmBiT-DDX5; 10 uM AUTAC4-2G for 12 h; luminescence 10 min after start of measurement
[2] = biological target: LgBiT-p62 (Homo sapiens (Human)) (UniProt Q13501); assay: NanoBiT split-luciferase complementation in HeLa cells co-transfected with pLgBiT-p62 and pSmBiT-DDX5; 10 uM FBnG for 24 h; luminescence 10 min after start of measurement
[3] = biological target: LgBiT-p62 (Homo sapiens (Human)) (UniProt Q13501); assay: NanoBiT split-luciferase complementation in HeLa cells co-transfected with pLgBiT-p62 and pSmBiT-DDX5; each of compounds 5 to 33 at 10 uM for 24 h; luminescence 10 min after start of measurement
[4] = biological target: LgBiT-p62 (Homo sapiens (Human)) (UniProt Q13501); assay: NanoBiT split-luciferase complementation in HeLa cells co-transfected with pLgBiT-p62 and pSmBiT-DDX5; 10 uM AUTAC2-2G for 12 h; luminescence 10 min after start of measurement
[5] = biological target: LgBiT-p62 (Homo sapiens (Human)) (UniProt Q13501); assay: NanoBiT split-luciferase complementation in HeLa cells co-transfected with pLgBiT-p62 and pSmBiT-DDX5; 10 uM 8-nitro-cGMP for 24 h; luminescence 10 min after start of measurement

Measured: emission intensity relative to cells treated with DMSO (times (fold over DMSO-treated cells))

Chain of SmBiT-DDX5 (P17844 whole entry): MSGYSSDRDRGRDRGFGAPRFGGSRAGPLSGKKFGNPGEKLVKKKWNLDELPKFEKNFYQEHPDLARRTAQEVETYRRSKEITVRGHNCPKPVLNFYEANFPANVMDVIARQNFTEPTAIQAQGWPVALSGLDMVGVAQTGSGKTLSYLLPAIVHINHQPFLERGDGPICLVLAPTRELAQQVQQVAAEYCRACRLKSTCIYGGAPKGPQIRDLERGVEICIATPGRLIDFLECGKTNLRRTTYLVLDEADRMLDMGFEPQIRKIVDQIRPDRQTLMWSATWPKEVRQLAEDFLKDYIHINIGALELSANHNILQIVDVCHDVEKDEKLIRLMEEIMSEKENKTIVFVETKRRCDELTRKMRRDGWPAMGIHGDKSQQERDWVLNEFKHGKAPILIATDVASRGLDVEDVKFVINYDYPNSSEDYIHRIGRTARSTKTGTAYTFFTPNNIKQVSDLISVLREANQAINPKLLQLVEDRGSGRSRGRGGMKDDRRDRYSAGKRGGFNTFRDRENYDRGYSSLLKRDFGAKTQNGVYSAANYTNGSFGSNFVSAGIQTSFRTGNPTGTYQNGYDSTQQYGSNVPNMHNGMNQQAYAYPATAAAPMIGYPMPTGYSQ

SmBiT-DDX5 (from UniProt P17844 1-614) (enzyme)
> 1000: all assays above
